Results from patent US20040115195A1.

Target: PTH-1 receptor (human) (UniProt Q03431)
Assay: cell-based or functional assay

Chain of UniProt Q03431 (Q03431 27-593): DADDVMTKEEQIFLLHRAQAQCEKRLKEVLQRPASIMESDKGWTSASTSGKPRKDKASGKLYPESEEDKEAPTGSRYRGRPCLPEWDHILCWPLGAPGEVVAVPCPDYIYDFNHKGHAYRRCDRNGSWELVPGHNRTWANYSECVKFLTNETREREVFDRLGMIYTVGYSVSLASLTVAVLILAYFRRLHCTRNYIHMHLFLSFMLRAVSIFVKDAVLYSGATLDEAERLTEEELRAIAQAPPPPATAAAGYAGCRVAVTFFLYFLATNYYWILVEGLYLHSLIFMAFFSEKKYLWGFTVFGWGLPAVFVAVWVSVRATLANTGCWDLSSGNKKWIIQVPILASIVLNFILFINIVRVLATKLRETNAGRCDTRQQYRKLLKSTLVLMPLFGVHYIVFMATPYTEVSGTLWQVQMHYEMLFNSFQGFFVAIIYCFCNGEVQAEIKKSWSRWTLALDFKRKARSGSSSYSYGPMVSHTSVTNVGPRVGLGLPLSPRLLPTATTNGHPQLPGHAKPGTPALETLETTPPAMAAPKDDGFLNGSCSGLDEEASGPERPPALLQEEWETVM

intracellular cAMP levels in hOB-01-C1-PS-09 cells preincubated 48 hr at 39 C, treated 10 min at 37 C: 5 to 6 fold
Substance: human PTH 1-34 (from UniProt P01270 32-65) (peptide)
